Target: T1, Ebola VP40 (1-326) (Ebola virus (EBOV), UniProt Q05128 1-326)
T1 sequence: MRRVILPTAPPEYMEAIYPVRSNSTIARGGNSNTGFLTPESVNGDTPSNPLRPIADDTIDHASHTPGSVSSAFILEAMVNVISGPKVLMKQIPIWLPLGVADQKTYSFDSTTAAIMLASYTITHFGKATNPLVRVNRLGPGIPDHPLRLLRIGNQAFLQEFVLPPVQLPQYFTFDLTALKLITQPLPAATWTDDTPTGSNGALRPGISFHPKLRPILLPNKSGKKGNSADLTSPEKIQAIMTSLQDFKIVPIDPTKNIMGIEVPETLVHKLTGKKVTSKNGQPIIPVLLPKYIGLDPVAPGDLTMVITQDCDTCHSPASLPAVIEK
Experiment: co-immunoprecipitation with anti-Myc antibody from 293T lysates

B1: TSG101 1-140 truncated mutant, C-terminally tagged with a Myc epitope (other)
chain: MAVSESQLKKMVSKYKYRDLTVRETVNVITLYKDLKPVLDSYVFNDGSSRELMNLTGTIPVPYRGNTYNIPICLWLLDTYPYNPPICFVKPTSSMTIKTGKHVDANGKIYLPYLHEWKHPQSDLLGLIQVMIVVFGDEPP
notes: Expressed in 293T cells
  binding result: no binding
